According to publication PMC3841736:

Molecular target: APC (UniProt P25054)
Assay: Flag co-IP, immunoblot
Conditions: reference: wild-type Flag:α-catenin; sites Y177

α-catenin (from UniProt P35221) Y177F
binding against the reference: stronger
